Source: publication doi:10.1101/071720

Target: recombinant pscC protein of Pseudomonas aeruginosa (PA01), His-GST fusion (Pseudomonas aeruginosa PA01)
Test: SEC

recombinant pscC protein of Pseudomonas aeruginosa (PA01), His-GST fusion (domain or fragment)
stoichiometry N: 2
